B1: 5-hydroxytryptamine receptor 2C (Homo sapiens), P28335-1 (parent)
chain: MVNLRNAVHSFLVHLIGLLVWQSDISVSPVAAIVTDIFNTSDGGRFKFPDGVQNWPALSIVIIIIMTIGGNILVIMAVSMEKKLHNATNYFLMSLAIADMLVGLLVMPLSLLAILYDYVWPLPRYLCPVWISLDVLFSTASIMHLCAISLDRYVAIRNPIEHSRFNSRTKAIMKIAIVWAISIGVSVPIPVIGLRDEEKVFVNNTTCVLNDPNFVLIGSFVAFFIPLTIMVITYCLTIYVLRRQALMLLHGHTEEPPGLSLDFLKCCKRNTAEEENSANPNQDQNARRRKKKERRPRGTMQAINNERKASKVLGIVFFVFLIMWCPFFITNILSVLCEKSCNQKLMEKLLNVFVWIGYVCSGINPLVYTLFNKIYRRAFSNYLRCNYKVEKKPPVRQIPRVAATALSGRELNVNIYRHTNEPVIEKASDNEPGIEMQVENLELPVNPSSVVSERISSV

Variants of: B1
Conditions: with GHSR

effect of a mutation on the interaction	Variant
increasing interaction strength	MVNLRNAVHSFLVHLIGLLVWQSDISVSPVAAIVTDIFNTSDGGRFKFPDGVQNWPALSIVIIIIMTIGGNILVIMAVSMEKKLHNATNYFLMSLAIADMLVGLLVMPLSLLAILYDYVWPLPRYLCPVWISLDVLFSTASIMHLCAISLDRYVAVRSPVEHSRFNSRTKAIMKIAIVWAISIGVSVPIPVIGLRDEEKVFVNNTTCVLNDPNFVLIGSFVAFFIPLTIMVITYCLTIYVLRRQALMLLHGHTEEPPGLSLDFLKCCKRNTAEEENSANPNQDQNARRRKKKERRPRGTMQAINNERKASKVLGIVFFVFLIMWCPFFITNILSVLCEKSCNQKLMEKLLNVFVWIGYVCSGINPLVYTLFNKIYRRAFSNYLRCNYKVEKKPPVRQIPRVAATALSGRELNVNIYRHTNEPVIEKASDNEPGIEMQVENLELPVNPSSVVSERISSV [I156V;N158S;I160V]

From IntAct's records for PubMed 25727097
